What was measured:
[1] = molecular target: Recombinant human insulin oxidized by metal-catalyzed oxidation (copper(II)/ascorbate) (human); assay: SEC; insulin oxidized in 50 mM sodium citrate, pH 3.0, 3 h at room temperature; same column and dissociating mobile phase; UV 276 nm; covalent aggregates only
[2] = molecular target: Recombinant human insulin oxidized by metal-catalyzed oxidation (copper(II)/ascorbate) (human); assay: SEC; insulin oxidized in 250 mM ammonium bicarbonate, pH 8.0, 3 h at room temperature (ammonia competes for Michael addition); same column and dissociating mobile phase; UV 276 nm; covalent aggregates only
[3] = molecular target: Recombinant human insulin oxidized by metal-catalyzed oxidation (copper(II)/ascorbate) (human); assay: SEC; insulin oxidized in 50 mM sodium citrate, pH 3.0, then exchanged into 50 mM PB, pH 7.4, and left 12 h at room temperature; same column and dissociating mobile phase; UV 276 nm; covalent aggregates only
[4] = molecular target: Recombinant human insulin oxidized by metal-catalyzed oxidation (copper(II)/ascorbate) (human); assay: SEC; insulin oxidized in 50 mM PB, pH 7.4, 3 h at room temperature; Insulin HMWP column, mobile phase 1 g/L L-arginine in water/acetonitrile/glacial acetic acid 65:20:15, which dissociates non-covalent aggregates; UV 276 nm; covalent dimers and oligomers only

“Recombinant human insulin oxidized by metal-catalyzed oxidation (copper(II)/ascorbate) (natural protein)” was tested, and the %Dimer (covalent) [1] was 0.8%, the %Dimer (covalent) [2] was 3.9% and the %Dimer (covalent) [3] was 9.3%. For the same substance, the %HMWO (covalent high-molecular-weight oligomers) [3] was 1.9%, the %Dimer (covalent) [4] was 18.8% and the %HMWO (covalent high-molecular-weight oligomers) [4] was 6.8%.

Reference: publication PMC3399080
